Measurements from US20190083587A1 (Novo Nordisk, published 2019).

T1: human fibrinogen (human, UniProt P02671 20-629; P02675 31-491; P02679 27-437, limits assumed)
T1 construct: the chain composition (two each of alpha, beta, gamma) is from general knowledge; also called HCI-0150R Haematologic technologies
T1 sequence (looked up) 1: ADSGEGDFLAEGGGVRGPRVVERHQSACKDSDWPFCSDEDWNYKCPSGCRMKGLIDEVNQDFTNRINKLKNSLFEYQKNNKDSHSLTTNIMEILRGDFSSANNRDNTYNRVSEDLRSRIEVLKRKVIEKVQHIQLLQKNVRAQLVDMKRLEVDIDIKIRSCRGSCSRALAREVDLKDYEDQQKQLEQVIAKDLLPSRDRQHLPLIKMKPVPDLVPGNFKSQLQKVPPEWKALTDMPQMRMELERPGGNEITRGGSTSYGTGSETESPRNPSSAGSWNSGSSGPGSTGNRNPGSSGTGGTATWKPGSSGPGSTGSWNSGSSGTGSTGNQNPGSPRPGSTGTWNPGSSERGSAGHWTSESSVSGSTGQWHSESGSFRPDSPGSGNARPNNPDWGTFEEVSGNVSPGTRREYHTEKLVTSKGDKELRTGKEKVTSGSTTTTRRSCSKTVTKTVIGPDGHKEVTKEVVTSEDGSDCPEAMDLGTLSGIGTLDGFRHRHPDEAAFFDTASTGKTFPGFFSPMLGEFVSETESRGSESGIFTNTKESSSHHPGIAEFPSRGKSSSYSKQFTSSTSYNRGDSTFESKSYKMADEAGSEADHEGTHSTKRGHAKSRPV
T1 sequence (looked up) 2: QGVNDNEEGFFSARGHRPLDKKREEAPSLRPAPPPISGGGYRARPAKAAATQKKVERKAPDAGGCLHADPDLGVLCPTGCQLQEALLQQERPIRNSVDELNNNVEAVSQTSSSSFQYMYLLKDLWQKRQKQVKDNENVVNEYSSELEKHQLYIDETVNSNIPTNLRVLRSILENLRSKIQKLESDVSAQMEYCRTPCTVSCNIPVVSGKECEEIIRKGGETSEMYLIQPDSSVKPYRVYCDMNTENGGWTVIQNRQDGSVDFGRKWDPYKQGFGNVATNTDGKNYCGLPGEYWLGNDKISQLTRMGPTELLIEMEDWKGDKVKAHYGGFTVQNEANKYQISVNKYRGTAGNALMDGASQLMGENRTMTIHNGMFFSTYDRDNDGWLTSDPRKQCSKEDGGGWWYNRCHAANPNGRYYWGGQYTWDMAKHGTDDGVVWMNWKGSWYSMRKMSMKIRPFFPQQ
T1 sequence (looked up) 3: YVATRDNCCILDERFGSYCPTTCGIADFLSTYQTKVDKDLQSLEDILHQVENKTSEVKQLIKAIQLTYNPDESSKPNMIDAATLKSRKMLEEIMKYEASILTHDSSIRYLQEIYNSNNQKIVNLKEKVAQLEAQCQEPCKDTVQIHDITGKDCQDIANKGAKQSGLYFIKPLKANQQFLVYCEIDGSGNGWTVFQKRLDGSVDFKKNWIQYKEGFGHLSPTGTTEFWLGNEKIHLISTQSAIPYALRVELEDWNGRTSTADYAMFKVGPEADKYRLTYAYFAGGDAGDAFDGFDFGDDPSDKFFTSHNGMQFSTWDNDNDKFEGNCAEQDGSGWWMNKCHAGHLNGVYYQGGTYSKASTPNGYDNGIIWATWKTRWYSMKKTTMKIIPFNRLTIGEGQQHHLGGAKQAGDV

B1: Fab0074 (Fab)
heavy: QVQLEQSGAELVRPGVSVKISCKGSGYTFTDYSMHWVKQSHAKSLEWIGVISTYYGDVRYNQKFKGKATMTVDKSSSTAYMALARLTSEDSAIYYCARAPMITTGAWFAYWGQGTLVTVSAASTKGPSVFPLAPCSRSTSESTAALGCLVKDYFPEPVTVSWNSGALTSGVHTFPAVLQSSGLYSLSSVVTVPSSSLGTKTYTCNVDHKPSNTKVDKRVESKYGPPC
light: SIVMTQTPKFLLVSAGDRVTITCKASQSVSNDVAWYQQKPGQSPKLLINYASSRYTGIPDRFTGSGYGTDFTFTISTVQAEDLAVYFCQQDYSSPYTFGGGTKLEIERTVAAPSVFIFPPSDEQLKSGTASVVCLLNNFYPREAKVQWKVDNALQSGNSQESVTEQDSKDSTYSLSSTLTLSKADYEKHKVYACEVTHQGLSSPVTKSFNRGECEDQVDPRLIDGK
notes: VH-CH1 (human IgG4) with partial hinge YGPPC (one free Cys); light chain with HPC4 tag; Entries may include signal peptides; also called antiTLT-1 0074Fab-YGPPC; (0051LC-HPC4)
B2: Fab0003 (Fab)
heavy: QVQLQQSGAEPMKPGASVKISCKATGYTFSSHWIEWIKQRPGHGLEWIGEILPGSGNTNYNEKFKGKATFTADTSSNTAYMQLSSLTSEDSAVYYCARGYYGLNYDWYFDVWGAGTTVTVSSASTKGPSVFPLAPCSRSTSESTAALGCLVKDYFPEPVTVSWNSGALTSGVHTFPAVLQSSGLYSLSSVVTVPSSSLGTKTYTCNVDHKPSNTKVDKRVESKYGPPC
light: DIQMTQTTSSLSASLGDRVTISCRASQDISNYLNWYQQKPDGTVKLLIFYTSRLHSGVPSRFSGSGSGTDYSLTISNLEPEDIATYYCQQDTKLPYTFGGGTKLEMKRTVAAPSVFIFPPSDEQLKSGTASVVCLLNNFYPREAKVQWKVDNALQSGNSQESVTEQDSKDSTYSLSSTLTLSKADYEKHKVYACEVTHQGLSSPVTKSFNRGECEDQVDPRLIDGK
notes: VH-CH1 (human IgG4) with partial hinge YGPPC; light chain with HPC4 tag; Entries may include signal peptides; also called antiTLT-1 0003Fab-YGPPC; (0052LC-HPC4)
B3: Fab0004 (Fab)
heavy: EVRLVESGGGLVQPGGSLKLSCATSGFTFSDYFMYWIRQTPEKRLEWVAYISNGGDSSSYPDTVKGRFTISRDNAKNTLYLQMSRLKSEDTAMYYCATNKNWDDYYDMDYWGQGTSVTVSSASTKGPSVFPLAPCSRSTSESTAALGCLVKDYFPEPVTVSWNSGALTSGVHTFPAVLQSSGLYSLSSVVTVPSSSLGTKTYTCNVDHKPSNTKVDKRVESKYGPPC
light: DIVVSQSPSSLAVSAGEKVTMSCKSSQSLLNSRTRKNYLAWYQQKPGQSPKLLIYWASTRESGVPDRFTGSGSGTDFTLTISSVQAEDLAVYYCKQSYNLLTFGAGTKLELKRTVAAPSVFIFPPSDEQLKSGTASVVCLLNNFYPREAKVQWKVDNALQSGNSQESVTEQDSKDSTYSLSSTLTLSKADYEKHKVYACEVTHQGLSSPVTKSFNRGECEDQVDPRLIDGK
notes: VH-CH1 (human IgG4) with partial hinge YGPPC; light chain with HPC4 tag; Entries may include signal peptides; also called antiTLT-1 0004Fab-YGPPC; (0023LC-HPC4)
B4: hTLT-1 ECD-His (receptor)
chain: QGIVGSLPEVLQAPVGSSILVQCHYRLQDVKAQKVWCRFLPEGCQPLVSSAVDRRAPAGRRTFLTDLGGGLLQVEMVTLQEEDAGEYGCMVDGARGPQILHRVSLNILPPEEEEETHKIGSLAENAFSDPAGSANPLEPSQDEKSIPHHHHHH
notes: Extracellular domain of human TLT-1 with C-terminal His-6 tag; the range 16-168 is computed from these; also called TLT-1-His; His tagged human TLT1
B5: Fab0084 (Fab)
heavy: EVKLLESGGGLVQPGGSLKLSCAASGFDFSRYWMTWVRQAPGKGLEWIGEINPDSSTINYNPSLKDKFIISRDNAKNTLYLQMSEVRSEDTALYYCASGVFTSWGQGTLVTVSAASTKGPSVFPLAPCSRSTSESTAALGCLVKDYFPEPVTVSWNSGALTSGVHTFPAVLQSSGLYSLSSVVTVPSSSLGTKTYTCNVDHKPSNTKVDKRVESKYGPPC
light: DVVMTQTPLSLPVSLGDQASISCRSSQSLVHRNGNTYFHWALQKPGQSPKLLIYKVSNRFSGVPDRFSGSGSGTDFTLKISRVEAEDLGVYFCSQSTHVPYTFGGGTKLEIKRTVAAPSVFIFPPSDEQLKSGTASVVCLLNNFYPREAKVQWKVDNALQSGNSQESVTEQDSKDSTYSLSSTLTLSKADYEKHKVYACEVTHQGLSSPVTKSFNRGECEDQVDPRLIDGK
notes: VH-CH1 (human IgG4) with partial hinge YGPPC (one free Cys); light chain with HPC4 tag; the ends of the ranges are computed; also called antiTLT-1 0084Fab-YGPPC; (0012VH.T60N-CH1-YGPPC)

How the values were obtained:
hTLT-1 ECD-His = molecular target: B4; test: SPR Biacore, TLT-1-His captured via anti-His mAb, Fab as analyte
Description: Method: The mAbs of interest were either immobilized directly to a CM5 chip or by capture via a human Fc capture mAb immobilized to a CM5 chip, while TLT-1-His was immobilized by capture via an anti-His mAb CM5 chip for analysis of Fabs.
TLT-1-His capture via anti-His mAb (R&D #MAB050): The anti-His mAb was immobilised to approx 9.000 RU. The TLT-1-His was added to a level of approx 30-40 RU (10 μg/ml diluted in 10 mM Hepes, 150 mM NaCl, 3 mM EDTA, 0.005% Tween-20) using the standard procedure recommended by the supplier. 8-fold dilutions of Fabs from 3 to 0.047 μg/ml were tested for binding to the TLT-1-His. Running and dilution buffer: 10 mM Hepes, 150 mM NaCl, 3 mM EDTA, 0.005% Tween-20. Regeneration was obtained by 3 M MgCl₂.

human fibrinogen = molecular target: T1, human fibrinogen; test: SPR Biacore T100, TLT-1 immobilised on CM5, fibrinogen 200-0.2 nM as analyte
Description: Human TLT-1 was immobilised to a level of approx 1000 RU on a CM5 chip (50 μg/ml diluted in Na-acetate, pH 4.0) using the standard procedure recommended by the supplier. Four-fold dilutions of human fibrinogen from 200 nM to 0.2 nM were tested for binding to the immobilized TLT-1. Running and dilution buffer: 10 mM HEPES, 150 mM, 0.005% p20, pH 7.4. Regeneration was obtained by 10 mM Glycine, pH 1.7.
Determination of kinetic and binding constants (kₒₙ, koff, KD) was obtained assuming a 1:1 interaction of TLT-1 and fibrinogen using the Biacore T100 evaluation software (Table 11).

FVIIa-Fab1001 = molecular target: T2, FVIIa-Fab1001 (human, UniProt P08709 61-466, linker attached as sialic acid derivative to an N-linked glycan (ST3Gal-III); gamma-carboxylated Glu in the Gla domain; unpaired hinge Cys (YGPPC) coupled by maleimide to the 3 kDa PEG linker); test: SPR Biacore T200, His-tagged TLT-1 captured via anti 6xHis mAb, analyte 29.29-0.45 nM, 25 C
T2 construct: FVIIa is the two-chain form; also called conjugate of anti TLT-1-FAB fragment (Fab0084) to FVIIa via a 3 kDa PEG linker
T2 sequence (P08709 61-466 limits assumed): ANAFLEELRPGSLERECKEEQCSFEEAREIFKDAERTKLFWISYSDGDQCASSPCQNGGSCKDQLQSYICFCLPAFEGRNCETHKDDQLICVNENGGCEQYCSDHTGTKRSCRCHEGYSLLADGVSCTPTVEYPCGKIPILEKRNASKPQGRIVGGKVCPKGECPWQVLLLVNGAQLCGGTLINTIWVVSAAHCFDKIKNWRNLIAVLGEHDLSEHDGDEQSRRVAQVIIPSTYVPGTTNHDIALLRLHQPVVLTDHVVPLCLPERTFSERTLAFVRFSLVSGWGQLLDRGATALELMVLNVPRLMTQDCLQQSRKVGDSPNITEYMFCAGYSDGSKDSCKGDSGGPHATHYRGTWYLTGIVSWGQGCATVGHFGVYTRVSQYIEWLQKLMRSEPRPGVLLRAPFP
Description: Method: An anti 6×his antibody was immobilised to a level of approx 9000 RU on a CM5 chip (0.5 mg/ml diluted in Na-acetate, pH 5.0) using the standard procedure recommended by the supplier. Human his-tagged TLT-1 in a concentration of 100 ng/ml was used as ligand. FVIIa-Fab1001 in two-fold dilutions from 29.29 nM to 0.45 nM was used as analytes. The running and dilution buffer was made from: 10 mM HEPES, 150 mM NaCl, 3 mM EDTA, 0.005% p20, pH 7.4. Regeneration was obtained by 3 M MgCl₂. The experiment was run at 25 degree Celsius. Determination of kinetic and binding constants (kₒₙ, koff, KD) was obtained assuming a 1:1 interaction of TLT1 and FVIIa-Fab1001 using the Biacore T200 evaluation software (Table 19).

FVIIa-Fab1029 = molecular target: T3, FVIIa-Fab1029 (human, UniProt P08709 61-466, linker attached as sialic acid derivative to an N-linked glycan (ST3Gal-III); gamma-carboxylated Glu in the Gla domain; unpaired hinge Cys (YGPPC) coupled by maleimide to the 10 kDa PEG linker); test: SPR Biacore T100, TLT-1 immobilised on CM5, analyte 20-0.3 nM
T3 construct: FVIIa is the two-chain form cleaved between Arg152 and Ile153; also called conjugate of anti TLT-1-FAB fragment (Fab0084) to FVIIa, 10 kDa PEG linker
T3 sequence (P08709 61-466 limits assumed): as above
Description: TLT-1 was immobilized directly to a CM5 chip to a level of approx 2000 RU (50 ug/ml diluted in Na-acetate, pH 4.0) using the standard procedure recommended by the supplier and reagents provided in Table 16. Two-fold dilutions of FVIIa-Fab1029 and FIX-Fab0135 from 20 nM to 0.3 nM were tested for binding to TLT-1. Running and dilution buffer: 10 mM HEPES, 150 mM, 0.005% p20, pH 7.4. Regeneration was obtained by 10 mM Glycine, pH 1.7. Determination of kinetic and binding constants (kₒₙ, koff, KD) was obtained assuming a 1:1 interaction of TLT-1 and FVIIa-Fab1029 or FIX-Fab0135 using the Biacore T100 evaluation software.

| Binder | Kd (hTLT-1 ECD-His) [nM] | koff (hTLT-1 ECD-His) [s⁻¹] | kon (hTLT-1 ECD-His) [M⁻¹ s⁻¹] | Kd (human fibrinogen) [nM] | koff (human fibrinogen) [s⁻¹] | kon (human fibrinogen) [M⁻¹ s⁻¹] | Kd (FVIIa-Fab1001) [nM] | koff (FVIIa-Fab1001) [s⁻¹] | kon (FVIIa-Fab1001) [M⁻¹ s⁻¹] | Kd (FVIIa-Fab1029) [nM] | koff (FVIIa-Fab1029) [s⁻¹] | kon (FVIIa-Fab1029) [M⁻¹ s⁻¹] |
| --- | --- | --- | --- | --- | --- | --- | --- | --- | --- | --- | --- | --- |
| B1 | 2.38 | 0.00798 | 3.35e+06 | – | – | – | – | – | – | – | – | – |
| B2 | 5.2 | 0.00279 | 536000 | – | – | – | – | – | – | – | – | – |
| B3 | 1.7 | 0.00195 | 1.15e+06 | – | – | – | – | – | – | – | – | – |
| B4 | – | – | – | 94 | 0.000392 | 4170 | 3.99 | 0.00319 | 801000 | 18.3 | 0.00726 | 397000 |
| B5 | 0.99 | 0.00524 | 5.31e+06 | – | – | – | – | – | – | – | – | – |
